Read-outs that look alike come from different tables or passages of the source.
Experiments:
Experiment in all cases: dynamic light scattering
[1] = biological target: full-length BLM protein (human) (UniProt P54132)
[2] = biological target: full-length BLM protein (human) (UniProt P54132); remark: listed apart in the source
[3] = biological target: full-length BLM protein (human) (UniProt P54132); remark: listed apart in the source

full-length BLM protein, P54132 1-1417 (enzyme; other documents disagree on this pair)
% mass in the high-order oligomer peak (radius 9.9 nm) [1]: 96.1% | % mass in the high-order oligomer peak (radius 10.1 nm) [1]: 97.2% | % mass in the high-order oligomer peak (radius 12.6 nm) [1]: 62.2% | % mass in the high-order oligomer peak (radius 12.7 nm) [1]: 57.8% | % mass in the high-order oligomer peak (radius 20.3 nm) [1]: 90.5% | % mass in the low-order oligomer peak (radius 8.2 nm) [1]: 37.8% | stoichiometry N [1]: 6 | stoichiometry N [2]: 6 | stoichiometry N [3]: 3

From PMC3479192
